According to patent publication US20210395344A1:

What was measured:
[1] = target: COVID S1 RBD Fc fusion (Antigen 1) (SARS-CoV-2), P0DTC2; experiment: phage ELISA; details: remark: other sources report otherwise
[2] = target: SARS-CoV-2 S protein trimer (SARS-CoV-2), P0DTC2; experiment: column DB/S-T (format not explained); details: remark: other sources report otherwise

B1: 1-5 (antibody, V domains shown)
VH: EVQLLESGGGLVQPGGSLRLSCAASGFTFSSQAMSWVRQAPGKGLEWVSAISGSGGGTYYADSVKGRFTISRDNSKNTLYLQMNSLRAEDTAVYYCAKDRRFGEFDPWGQGTLVTVSS
VL: QSALTQPASVSGSPGQSITISCTGTSSGVGSYNLVSWYQQHPGKAPKLMIYEASKRPSGVSNRFSGSKSGNTASLTISGLQAEDEADYYCCSYAGSYTFAVFGGGTKLTVL
ELISA fold over background (fold over background) [1]: 1.6
Kd [2]: 1160 nM
